The text below walks through data of patent US20220305003A1, “METHODS OF TREATING CANCER WITH AN INHIBITOR OF ZNF827” (CHILDREN'S MEDICAL RESEARCH INSTITUTE, priority 2019, published 2022).

Assay [1] deals with T1, replication protein A (RPA), heterotrimeric complex (human, UniProt P27694 1-616; P15927 1-270; P35244 2-121).
T1 construct: Endogenous RPA of human cell lines, detected with an RPA2 (RPA32) antibody; also called detected through RPA32; RPA2
Description: co-IP of Myc-DDK-tagged ZNF827 mutants, Western blot for RPA. As for the experimental part: (§1) Resuspended cells were lysed by incubation with rotation for 1 hour at 4° C. For Benzonase treatment to remove DNA, samples were incubated in the lysis buffer described above supplemented with 25 U Benzonase nuclease (Novagen, Merck Millipore) for 2 hours at 4° C. Lysates were subjected to centrifugation at 13,000 rpm for 40 minutes at 4° C. to remove cell debris. The supernatant was then transferred to a fresh cold low bind 1.5 mL tube for subsequent immunoprecipitation. For immunoprecipitation, protein lysates were incubated with antibody for the protein of interest (10 μg per mL lysate) or IgG control (Refer to Tables 4 and 5 for the list of antibodies used in this study), preincubated with Dynabeads Protein G, as per manufacturer's instructions (Life Technologies), with rotation overnight at 4° C. The following day, beads were washed three times in cold lysis buffer and separated on a magnetic rack. Proteins were then eluted from the beads by resuspension in 50 mM Glycine pH 2.8 and sodium dodecyl sulphate (SDS) sample buffer (0.2 M Tris-Cl, pH 6.8, 28% glycerol, 13.5% β-mercaptoethanol, 6% SDS, 6 mM EGTA, and 0.07% bromophenol blue) for 10 minutes at 70° C. and subjected to Western blot analysis, as described below, to detect various protein interactions. […]

The target of assay [2] is T2, topoisomerase 2-binding protein 1 (TOPBP1) (human, UniProt Q92547 1-1522).
T2 construct: TOPBP1 in lysates of human cells, co-immunoprecipitated with Myc antibody
Briefly: co-IP with Myc antibody, Western blot for TOPBP1. As to the method: as §1

T1 sequence (P27694 whole entry, chain 1 of 3): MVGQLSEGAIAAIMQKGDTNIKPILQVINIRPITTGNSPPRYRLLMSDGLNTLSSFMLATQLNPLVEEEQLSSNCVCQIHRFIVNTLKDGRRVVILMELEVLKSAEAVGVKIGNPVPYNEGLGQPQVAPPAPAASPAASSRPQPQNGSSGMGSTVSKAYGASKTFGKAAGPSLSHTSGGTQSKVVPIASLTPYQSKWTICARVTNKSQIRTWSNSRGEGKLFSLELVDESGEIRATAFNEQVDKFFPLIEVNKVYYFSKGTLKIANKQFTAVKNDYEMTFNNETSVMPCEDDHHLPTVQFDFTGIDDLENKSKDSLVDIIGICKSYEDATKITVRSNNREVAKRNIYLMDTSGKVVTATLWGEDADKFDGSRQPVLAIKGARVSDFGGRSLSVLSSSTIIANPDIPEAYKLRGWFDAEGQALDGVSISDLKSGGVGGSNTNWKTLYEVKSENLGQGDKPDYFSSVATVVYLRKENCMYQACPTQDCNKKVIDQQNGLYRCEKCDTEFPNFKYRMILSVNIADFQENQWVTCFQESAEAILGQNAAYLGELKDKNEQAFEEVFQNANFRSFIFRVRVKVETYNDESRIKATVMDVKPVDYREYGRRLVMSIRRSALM
T1 sequence (P15927 whole entry, chain 2 of 3): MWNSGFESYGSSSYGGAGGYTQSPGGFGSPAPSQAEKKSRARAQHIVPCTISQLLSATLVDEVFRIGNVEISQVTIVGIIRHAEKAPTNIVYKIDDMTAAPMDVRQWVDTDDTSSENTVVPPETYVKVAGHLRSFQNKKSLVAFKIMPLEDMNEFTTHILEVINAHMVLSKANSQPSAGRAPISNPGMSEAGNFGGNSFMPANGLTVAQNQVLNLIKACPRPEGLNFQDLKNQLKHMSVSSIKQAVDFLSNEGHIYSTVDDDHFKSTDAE
T1 sequence (P35244 2-121 limits assumed, chain 3 of 3): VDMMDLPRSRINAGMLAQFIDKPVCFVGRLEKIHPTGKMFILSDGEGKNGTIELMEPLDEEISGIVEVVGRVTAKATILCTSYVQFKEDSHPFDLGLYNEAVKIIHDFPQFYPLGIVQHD
T2 sequence (Q92547 whole entry): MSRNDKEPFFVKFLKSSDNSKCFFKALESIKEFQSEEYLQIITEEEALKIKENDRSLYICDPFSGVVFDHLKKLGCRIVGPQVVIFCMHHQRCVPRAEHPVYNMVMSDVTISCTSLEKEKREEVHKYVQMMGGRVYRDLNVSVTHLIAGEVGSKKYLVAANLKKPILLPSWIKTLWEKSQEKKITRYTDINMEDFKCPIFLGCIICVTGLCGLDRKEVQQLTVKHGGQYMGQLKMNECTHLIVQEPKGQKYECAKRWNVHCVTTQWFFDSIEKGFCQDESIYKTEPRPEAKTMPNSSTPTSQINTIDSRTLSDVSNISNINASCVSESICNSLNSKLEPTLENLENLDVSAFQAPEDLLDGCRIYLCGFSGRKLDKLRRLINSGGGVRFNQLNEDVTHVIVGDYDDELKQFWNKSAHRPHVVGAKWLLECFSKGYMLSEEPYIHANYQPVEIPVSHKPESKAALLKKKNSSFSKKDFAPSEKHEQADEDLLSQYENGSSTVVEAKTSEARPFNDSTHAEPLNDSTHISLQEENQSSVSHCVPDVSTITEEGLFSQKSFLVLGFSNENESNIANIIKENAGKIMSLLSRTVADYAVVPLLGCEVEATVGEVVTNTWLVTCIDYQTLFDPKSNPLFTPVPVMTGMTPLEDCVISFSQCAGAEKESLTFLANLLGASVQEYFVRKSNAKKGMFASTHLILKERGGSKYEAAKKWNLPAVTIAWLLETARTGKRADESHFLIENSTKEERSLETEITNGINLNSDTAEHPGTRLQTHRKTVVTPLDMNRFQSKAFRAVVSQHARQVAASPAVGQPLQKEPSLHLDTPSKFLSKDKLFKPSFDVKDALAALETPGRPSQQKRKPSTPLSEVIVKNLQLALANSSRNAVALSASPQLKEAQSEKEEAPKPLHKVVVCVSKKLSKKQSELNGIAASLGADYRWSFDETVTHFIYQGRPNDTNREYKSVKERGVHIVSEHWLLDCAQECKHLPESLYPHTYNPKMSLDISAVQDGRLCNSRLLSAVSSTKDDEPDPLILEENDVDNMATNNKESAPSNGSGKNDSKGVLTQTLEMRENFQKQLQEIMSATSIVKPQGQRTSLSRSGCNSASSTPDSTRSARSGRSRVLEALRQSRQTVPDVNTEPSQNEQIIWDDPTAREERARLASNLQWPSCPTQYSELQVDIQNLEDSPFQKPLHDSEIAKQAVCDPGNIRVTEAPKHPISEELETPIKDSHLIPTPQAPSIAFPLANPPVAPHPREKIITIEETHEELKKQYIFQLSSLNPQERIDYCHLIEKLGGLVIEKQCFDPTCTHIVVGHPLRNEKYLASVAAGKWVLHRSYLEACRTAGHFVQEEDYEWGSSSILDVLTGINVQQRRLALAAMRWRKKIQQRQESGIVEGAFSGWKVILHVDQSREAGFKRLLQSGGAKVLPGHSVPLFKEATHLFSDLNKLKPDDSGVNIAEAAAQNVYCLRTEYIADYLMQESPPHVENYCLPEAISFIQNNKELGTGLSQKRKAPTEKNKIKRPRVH

B1: ZNF827 mutant with no zinc fingers (ZnF1-9 deleted) (other)
chain: MPRRKQEQPKRLPSHVSRQEEAEGELSEGEHWYGNSSETPSEASYGEVQENYKLSLEDRIQEQSTSPDTSLGSTTPSSHTLELVALDSEVLRDSLQCQDHLSPGVSSLCDDDPGSNKPLSSNLRRLLEAGSLKLDAAATANGRVESPVNVGSNLSFSPPSHHAQQLSVLARKLAEKQEQNDQYTPSNRFIWNQGKWLPNSTTTCSLSPDSAILKLKAAANAVLQDKSLTRTEETMRFESFSSPFSSQSASSTLAALSKKVSERSLTPGQEHPPPASSFLSLASMTSSAALLKEVAARAAGSLLAEKSSLLPEDPLPPPPSEKKPEKVTPPPPPPPPPPPPPPPQSLELLLLPVPKGRVSKPSNSASEEESGKPQHFLRTEAKVKEEIPDPDVKGSPHLSDSACLGQQREGGGTELVGTMMTSNTPERTSQGGAGVSPLLVKEEPKEDNGLPTSFTLNAADRPATRTRPLEQKLISEEDLAANDILDYKDDDDKV
notes: also called ZnF1-9d mutant
With B1, the binding result in assay [1] and in assay [2] was “no binding” throughout.
